Laboratory results as given in the Immune Epitope Database (IEDB).

Assays:
HLA-A*26:01 = test: IEDB peptide-MHC binding, purified MHC/competitive/radioactivity; filed as Kd, often an IC50 or EC50 that approximates it; ≥ and ≤ were set here for values at or beyond the usual limits of such assays
HLA-A*01:01 = test: as above
HLA-B*53:01 = test: as above; conditions: source organism: Dengue virus 2 Jamaica/1409/1983
HLA-B*07:02 = test: as above
HLA-A*29:02 = test: as above
HLA-A*30:02 = test: as above
HLA-A*24:02 = test: as above
HLA-A*23:01 = test: as above
HLA-B*44:02 = test: as above
HLA-B*44:03 = test: as above
HLA-B*40:01 = test: as above
HLA-A*30:01 = test: as above; conditions: source organism: Mammarenavirus guanaritoense
HLA-A*32:01 = test: as above; conditions: source organism: Mammarenavirus guanaritoense
HLA-B*46:01 = test: IEDB peptide-MHC binding, purified MHC/direct/fluorescence; filed as Kd, often an IC50 or EC50 that approximates it; ≥ and ≤ were set here for values at or beyond the usual limits of such assays; conditions: source organism: West Nile virus
[1] = source organism: Dengue virus 4 Philippines/H241/1956
[2] = source organism: Dengue virus 2 Jamaica/1409/1983
[3] = source organism: SARS coronavirus Tor2
[4] = source organism: Mammarenavirus guanaritoense
[5] = source organism: Mammarenavirus brazilense
[6] = source organism: Dengue virus 3 Martinique/1243/1999
[7] = source organism: Lymphocytic choriomeningitis virus (strain Armstrong)
[8] = source organism: Dengue virus 1 Singapore/S275/1990

Q: ETAWDFGSVG was tested. Which Kd (HLA-A*26:01; [1]) did it give?
A: 138 nM

Q: Which Kd (HLA-A*01:01; [1]) does the source give for FLGEDGCWY here?
A: 277 nM

Q: With FVEGVSGGSW as the sequence, how does the Kd (HLA-A*26:01; [2]) read?
A: 14200 nM

Q: And the Kd (HLA-B*53:01)?
A: 48.8 nM

Q: How did the Kd (HLA-B*07:02; source organism: Dengue virus 1 Brazil/97-11/1997) turn out when GPMPVTVASA was run?
A: 53.3 nM

Q: Which Kd (HLA-A*26:01; [2]) does the source give for GVIITWIGM here?
A: 15700 nM

Q: How did the Kd (HLA-A*26:01; [1]) turn out when HLAIMAVFKM was run?
A: 9580 nM

Q: Which Kd (HLA-A*26:01; [3]) does the source give for IDETCEHEY here?
A: ≥ 32000 nM

Q: And the Kd (HLA-A*29:02; [3])?
A: 2850 nM

Q: What about the Kd (HLA-A*30:02; [3]) of the same sequence?
A: 162 nM

Q: What about the Kd (HLA-A*24:02; [3]) of the same sequence?
A: ≥ 77600 nM

Q: What about the Kd (HLA-A*01:01; [3]) of the same sequence?
A: 11000 nM

Q: What about the Kd (HLA-A*23:01; [3]) of the same sequence?
A: ≥ 77800 nM

Q: What does the source list for IEREIPERSW?
A: Kd (HLA-B*44:02; [1]): 61.6 nM; Kd (HLA-B*44:03; [1]): 649 nM

Q: Which results are given for IMRNLTNLL?
A: Kd (HLA-A*29:02; [4]): 305 nM; Kd (HLA-A*24:02; [4]): ≥ 33100 nM; Kd (HLA-A*23:01; [4]): 6150 nM

Q: How did the Kd (HLA-A*26:01; [5]) turn out when IPDVIELAY was run?
A: ≥ 38300 nM

Q: What about the Kd (HLA-A*29:02; [5]) of the same sequence?
A: 3150 nM

Q: And the Kd (HLA-A*30:02; [5])?
A: 2760 nM

Q: What about the Kd (HLA-A*24:02; [5]) of the same sequence?
A: ≥ 33500 nM

Q: And the Kd (HLA-A*01:01; [5])?
A: 5510 nM

Q: And the Kd (HLA-A*23:01; [5])?
A: 18600 nM

Q: For IPLQWIASA, which Kd (HLA-B*07:02; [6]) is on record?
A: 88.4 nM

Q: Which results are given for KCWLVTNGSY?
A: Kd (HLA-A*26:01; [7]): ≥ 69700 nM; Kd (HLA-A*29:02; [7]): 937 nM; Kd (HLA-A*30:02; [7]): 27.4 nM; Kd (HLA-A*24:02; [7]): ≥ 70300 nM; Kd (HLA-A*01:01; [7]): 17300 nM; Kd (HLA-A*23:01; [7]): ≥ 70000 nM

Q: KEIAETQHG was tested. Which Kd (HLA-B*44:02; [2]) did it give?
A: 62.1 nM

Q: What does the source list for KEISNMLNI?
A: Kd (HLA-B*40:01; [8]): 191 nM; Kd (HLA-B*44:02; [8]): 74.6 nM; Kd (HLA-B*44:03; [8]): 68.7 nM

Q: KMETLQRKY was tested. Which Kd (HLA-A*30:02; [2]) did it give?
A: ≥ 76900 nM

Q: Which Kd (HLA-A*30:02; [2]) does the source give for KVDAIDGEY here?
A: 171 nM

Q: What about the Kd (HLA-A*01:01; [2]) of the same sequence?
A: 953 nM

Q: Which results are given for LEHGSCVTTM?
A: Kd (HLA-B*40:01; [2]): 64.8 nM; Kd (HLA-B*44:03; [2]): 1080 nM

Q: For LFDVIPVSY, which Kd (HLA-A*26:01; [4]) is on record?
A: ≥ 51900 nM

Q: And the Kd (HLA-A*29:02; [4])?
A: 67.3 nM

Q: What about the Kd (HLA-A*30:01) of the same sequence?
A: ≥ 21100 nM

Q: And the Kd (HLA-A*30:02; [4])?
A: 1910 nM

Q: And the Kd (HLA-A*32:01)?
A: 9750 nM

Q: And the Kd (HLA-A*01:01; [4])?
A: 613 nM

Q: Which results are given for LIFRGPNVV?
A: Kd (HLA-A*26:01; [7]): ≥ 77900 nM; Kd (HLA-A*29:02; [7]): ≥ 54700 nM; Kd (HLA-A*30:02; [7]): 9970 nM; Kd (HLA-A*24:02; [7]): ≥ 77500 nM; Kd (HLA-A*01:01; [7]): 10800 nM; Kd (HLA-A*23:01; [7]): 15400 nM

Q: LLLLVAPAY was tested. Which Kd (HLA-B*46:01) did it give?
A: ≥ 20000 nM

Q: Which Kd (HLA-A*29:02; [5]) does the source give for LTHSINALI here?
A: 12800 nM

Q: What about the Kd (HLA-A*24:02; [5]) of the same sequence?
A: 6720 nM

Q: And the Kd (HLA-A*23:01; [5])?
A: 1010 nM

Q: Which Kd (HLA-A*26:01; [6]) does the source give for LTMKNKAWM here?
A: ≥ 45300 nM
